For this experiment, the target named is monomeric CDK2 (GST-CDK2/CIV in the absence of cyclin A) (UniProt P24941 1-298). Description: real-time fluorescence assay with Cy3-labelled sensor. Here is the method:
Fluorescence emission of Cy3 was measured at 590 nm following excitation at 544 nm on Polarstar™ fluorimeter.
Fluorescence kinase assays were performed in 96-well plates in a thermostated chamber (Polarstar BMG) at 30° C. in 200 ul phosphate buffer saline, pH 7.2, 150 mM NaCl, in the presence of 5 mM MgCl2, 0.5 mM ATP, except when stated otherwise. […] Changes in Cy3 fluorescence emission were recorded at 590 nm following excitation at 544 nm. […] Data analysis and curve fitting were performed using the GraFit Software (Erathicus Ltd).

B1: GST-CDKACTH1 labelled with Cy3 (CDKACTH1-Cy3) (other)
chain: GEVVDSHLSDMLQQLHSVNASKPSERGLVRQEEAEDPASIPIFWVSKWVDYSDKYGLGYQLSDNSVGVLFNDSTRLILYNDGDSLQYIERDGTESYLTVSSHPNSLMKKITLLKYFRNYMSEHLLKAGANITPREGDELARLPYLRTWFRTRSAIILHLSNGSVQINFFQDHTKLILSPLMAAVTYIDEKRDFRTYRLSLLEEYGSSKELASRLRYARTMVDKLLSSRSASNRLKASPGAGGTGGLPGGGGCSTPKKAKKL
modifications: Cy3-maleimide coupled to the unique cysteine of the substrate sequence (position -2 of the TP phosphorylation site)
notes: The GST tag was not removed; also called CDKACT-Cy3; CDKACT-H1 biosensor; not shown: N-terminal GST tag from the pGex6P1 vector, kept on the biosensor
In the case of B1, the binding result is listed as “no binding”.
